From the supplement of paper PMC9732359
± gives the uncertainty stated by the source.

Test: protein stability index of a GFP-peptide fusion (yeast GPS) (PSI 1-4); higher = more stable; sorted into four equal gates, so the index is relative within each strain
How it was run: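 The protein stability index combines read frequencies across sorting gates, each weighted by its gate number and then summed. To obtain those frequencies, a pooled yeast library of GFP fusions to tiled 17-residue yeast protein peptides, on a plasmid also expressing Cherry, was grown to mid-log phase in leucine-free medium. The cells were sorted into four equal gates by GFP/Cherry ratio before plasmid amplification by PCR and Illumina sequencing.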

| Sequence | protein stability index (doa10∆) | protein stability index (pdr5∆) | protein stability index (san1∆) | protein stability index (ubr1∆) |
| --- | --- | --- | --- | --- |
| SKKRKLVADGVFYAELN [RPS3] | 2.82 ± 0.24 | 1.84 ± 0.19 | 1.55 ± 0.13 | – |
| VRIYSGLLKRGDTVRIL [SNU114] | – | 2.92 ± 0.17 | 2.66 ± 0.17 | 3.02 ± 0.1 |
| SSTKPPGSVNSAAKYKD [NUT1] | 2.68 ± 0.064 | 2.64 ± 0.061 | 2.53 ± 0.1 | 2.93 ± 0.065 |
| WIRLRTNNTIRYNAKRR [RPL39] | 2.88 ± 0.12 | 2.65 ± 0.083 | 2.93 ± 0.1 | 2.72 ± 0.066 |
| KEILDNILPFLWGPHGL [ECM29] | 2.67 ± 0.24 | 3.09 ± 0.24 | – | 3.37 ± 0.17 |
| QADLQAMDRAHRIGQKK [ISW2] | – | – | 3.14 ± 0.23 | – |
| RHIKSKHEDLSLEQRQE [RPN4] | 2.97 ± 0.069 | 3.05 ± 0.086 | 2.79 ± 0.096 | 3.03 ± 0.066 |
| IIEQLSIAAERYDYSDE [YCG1] | 2.51 ± 0.052 | 2.78 ± 0.063 | 2.22 ± 0.06 | 2.59 ± 0.032 |
| QNNFHVLIDLLNWFRTT [RGR1] | 1.99 ± 0.064 | 2.17 ± 0.074 | 2.67 ± 0.053 | 2.47 ± 0.09 |
| TVIPEDEEIIQLHFSLL [RPO21] | 2.64 ± 0.06 | 2.98 ± 0.067 | 2.98 ± 0.057 | 2.56 ± 0.086 |
| TSSAPAQNQGMFGAKPA [YGL172W/NUP49] | 2.44 ± 0.11 | 2.75 ± 0.089 | 1.92 ± 0.14 | 2.79 ± 0.069 |
| NLKDLNNVKQMVMAGSK [RPO21] | 1.81 ± 0.12 | 1.95 ± 0.12 | – | 1.92 ± 0.077 |
| KKSGSLTFNSKNIQSKD [FAS2] | 3.2 ± 0.12 | 3.29 ± 0.13 | 3.26 ± 0.13 | 3.27 ± 0.075 |
| EEVQQAQTEIKLFNKWS [RPS5] | 3.17 ± 0.1 | 3.21 ± 0.096 | 3.25 ± 0.076 | 3.27 ± 0.075 |
| MSGILHCEDKDYKTAFS [RPN6] | 2.95 ± 0.07 | 2.89 ± 0.071 | 2.51 ± 0.072 | 3.16 ± 0.049 |
| TLGNALRYVIMKNPDVE [RPC19] | 2.93 ± 0.091 | 2.73 ± 0.059 | 2.46 ± 0.077 | 2.8 ± 0.055 |
| LVYDVKGRFAVHRITDE [RPS4A] | 3.25 ± 0.078 | 3.08 ± 0.11 | 3.46 ± 0.07 | 3.29 ± 0.068 |
| SSLEELLLKDQQTAKKL [ECM29] | 2.82 ± 0.091 | 2.99 ± 0.077 | 2.92 ± 0.1 | 2.95 ± 0.058 |
| AKKRKTLILIQNPENLL [SIR3] | 3.04 ± 0.094 | 2.54 ± 0.099 | 3.11 ± 0.092 | 2.78 ± 0.096 |
| QKKNFLFKPLNKTLTLD [ARP7] | 2.83 ± 0.093 | 2.45 ± 0.14 | 2.08 ± 0.25 | 1.89 ± 0.26 |
| GNYSHLMEKNRIRKLTG [REC8] | 1.58 ± 0.067 | 2.04 ± 0.061 | 2.56 ± 0.1 | 1.9 ± 0.062 |
| MKLSMPPEVTSSNCHVR [POP1] | 2.4 ± 0.066 | 2.6 ± 0.075 | 2.32 ± 0.076 | 2.48 ± 0.042 |
| CERRSTLKLQDTRITPS [PRE6] | 2.53 ± 0.061 | 2.81 ± 0.092 | 3.09 ± 0.099 | 2.82 ± 0.059 |
| KGTNDEGTSISVHLIEC [YCS4] | 2.78 ± 0.094 | 2.73 ± 0.071 | 2.69 ± 0.11 | 3.2 ± 0.059 |
| LSTSVGWKYEDVVAKLE [RPL16A] | 3.44 ± 0.11 | 3.29 ± 0.21 | 3.5 ± 0.14 | 3.53 ± 0.19 |
| NQKLALVIKSGKYTLGY [RPL30] | 2.46 ± 0.11 | 2.87 ± 0.09 | 2.29 ± 0.13 | 2.93 ± 0.047 |

| Sequence | protein stability index (doa10∆) | protein stability index (pdr5∆) | protein stability index (san1∆) | protein stability index (ubr1∆) |
| --- | --- | --- | --- | --- |
| TSTPPPPPAPHNLHPQI [SNF5] | 3.2 ± 0.058 | 3.16 ± 0.048 | 3.08 ± 0.049 | 3.14 ± 0.039 |
| TNTFGSNSAGTSLFGSS [YJL041W/NSP1] | 3.1 ± 0.083 | 2.84 ± 0.09 | 3.16 ± 0.082 | 3.15 ± 0.058 |
| VNADTVGKTVKQLIMES [NSL1] | 3.22 ± 0.077 | 3.13 ± 0.055 | 2.94 ± 0.058 | 3.33 ± 0.05 |
| VDIVNQWFLQYQNQFVE [YML103C/NUP188] | 1.79 ± 0.055 | 2.1 ± 0.054 | 1.81 ± 0.065 | 2.29 ± 0.042 |
| RSTKDMIDAVFEQDSHL [SNF6] | 3.12 ± 0.068 | 3.34 ± 0.054 | 3.27 ± 0.053 | 3.14 ± 0.058 |
| INKQRVPLSDNAIIEAN [RPL7A] | 2.6 ± 0.058 | 2.61 ± 0.064 | 2.51 ± 0.066 | 2.54 ± 0.053 |
| NPSQGVSNSGAQDEEIH [UBP6] | 2.04 ± 0.074 | 2.22 ± 0.068 | 2.04 ± 0.12 | 2.11 ± 0.059 |
| FLKHNGEEDAVDLLLEI [RPN1] | 3.23 ± 0.082 | 3.16 ± 0.12 | 3.24 ± 0.072 | 3.3 ± 0.05 |
| LAAMAVLESHWKQDLTK [PUP1] | 3.24 ± 0.16 | 3.24 ± 0.14 | 2.48 ± 0.21 | 3.71 ± 0.18 |
| NEKSQAEQEKAKNIISN [LRP1] | 2.59 ± 0.092 | 2.83 ± 0.12 | 2.86 ± 0.078 | 2.62 ± 0.17 |
| DEMYELTDPMTVMFFYH [DIB1] | 2.69 ± 0.092 | 3.01 ± 0.11 | 2.83 ± 0.14 | 2.85 ± 0.11 |
| ANFKTSKKYQLADWRIR [RRP6] | 2.97 ± 0.1 | 3.05 ± 0.096 | 2.84 ± 0.15 | 2.92 ± 0.1 |
| KETQQYELEFDTPTSGK [BRR2] | 2.99 ± 0.05 | 2.98 ± 0.055 | 3.05 ± 0.041 | 3.08 ± 0.045 |
| MAYFDENLNRNWRGREH [BRN1] | 3.25 ± 0.099 | 3.41 ± 0.16 | 2.99 ± 0.091 | 3.14 ± 0.095 |
| QILIFAADTSIVEQDKS [YJL039C/NUP192] | 2.04 ± 0.13 | 2.44 ± 0.21 | 2.45 ± 0.18 | 2.54 ± 0.25 |
| PDLPALEASYSKSYTPR [SMC4] | 2.28 ± 0.064 | 3.02 ± 0.088 | 2.75 ± 0.1 | 2.6 ± 0.071 |
| VTYTEHAKRKTVTSLDV [HHF1] | 3.25 ± 0.23 | – | – | 2.68 ± 0.095 |
| EPSDLRSWTLTSEMKVL [YGL100W/SEH1] | 2.92 ± 0.049 | 2.77 ± 0.045 | 3.16 ± 0.052 | 3.37 ± 0.045 |
| NEFQLQWGKYQTFGVDI [SWI1] | 2.98 ± 0.12 | 3.06 ± 0.09 | 3.09 ± 0.067 | 3.26 ± 0.088 |
| MLVKAVANSTKAAFIRV [RPT3] | 1.97 ± 0.05 | 1.5 ± 0.047 | 1.38 ± 0.11 | 1.27 ± 0.036 |
| AKRDYIISRLNADFQKP [FAS1] | 3.32 ± 0.13 | 3.07 ± 0.085 | 2.94 ± 0.091 | 3.22 ± 0.077 |
| ISVNSSSFSLTFFPRCI [POP1] | 2.55 ± 0.03 | 2.66 ± 0.035 | 2.44 ± 0.039 | 2.44 ± 0.031 |
| SSNVQQPQQQLGDMENN [RTT102] | 3.21 ± 0.19 | 3.29 ± 0.12 | 3.11 ± 0.088 | 3.21 ± 0.17 |
| NVLNQINQIFSPEEQRS [GAL11] | 2.83 ± 0.045 | 2.93 ± 0.035 | 2.91 ± 0.039 | 2.81 ± 0.038 |
| LIEEEVEQDEGQCRTEL [YCS4] | 3.59 ± 0.13 | 3.53 ± 0.15 | – | 3.45 ± 0.12 |
| VTLFQMAILLLYNDADV [CDC53] | 2.03 ± 0.057 | 1.79 ± 0.051 | 1.67 ± 0.099 | 1.96 ± 0.041 |
